This passage reports inhibition of lysis of autologous 1C tumor cells in a 4-hour 51Cr release assay results from patent US20040058445A1.

The target of this assay is MHC class I (framework determinant) on human tumor cells of patient 1C.

In turn, MAb w6/32 (antibody) showed an inhibition of lysis of autologous 1C tumor cells in a 4-hour 51Cr release assay of 5 % lysis.
